# Non-standard residues stand in square brackets, D forms with d. No end group written: not given here. pT = C[C@@H](OP(=O)(O)O)[C@H](N)C(=O)O; pS = N[C@@H](COP(=O)(O)O)C(=O)O
# T1: human TFIIH p62-PH domain (residues 1–108) (human, UniProt P32780 1-108)
# T1 construct: PH domain of the p62 subunit of the general transcription factor TFIIH, human, residues 1-108; Used 15N- or 13C/15N-labelled in the NMR experiments, unlabelled when added to XPC-AF; also called pleckstrin homology (PH) domain of the p62 subunit of TFIIH
# T1 sequence (looked up): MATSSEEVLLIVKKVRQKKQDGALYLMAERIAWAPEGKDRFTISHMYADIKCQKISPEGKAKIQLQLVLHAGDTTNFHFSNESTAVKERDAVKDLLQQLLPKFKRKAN
# Key:
# Conditions in all cases: both partners purified
# [1] = target: T1, human TFIIH p62-PH domain (residues …); assay: ITC; VP-ITC; 100 μM XPC peptide in the syringe (25 × 20 μl injections), 2 ml of 10 μM p62-PH in the cell; 20 °C; 20 mM potassium phosphate (pH 6.8)
# [2] = target: T1, human TFIIH p62-PH domain (residues …); assay: NMR titration; real-time NMR of 150 μl of 50 μM complex of labeled XPC-AF and labeled p62-PH; 2.5 μg CK2 added; 20 mM potassium phosphate (pH 6.8), 1 mM ATP, 10 mM MgCl2, 5 mM deuterated DTT, 10% D2O
# [3] = target: T1, human TFIIH p62-PH domain (residues …); assay: NMR titration; 1H,15N HSQC perturbation: p53-TAD2 peptides added to 15N-labeled p62-PH at a molar ratio of 1:2.5 (p62:p53); 20 mM potassium phosphate (pH 6.8), 1 mM ATP, 10 mM MgCl2, 5 mM deuterated DTT, 10% D2O; 32 °C
Kd [1] [nM],binding result [3],Binder,other results
41,–,"EEEEE[pS]ENDWEEVEELSEP (peptide, UniProt Q01831 124-142, looked up, XPC, human, residues 124-142; also called Ser129-phosphorylated XPC peptide; source: synthetic peptide, bought: Sigma Genosys Japan) [Ser129-phosphorylated peptide of human XPC (residues 124–142)]",–
132,–,"EEEEESENDWEEVEELSEP (peptide, UniProt Q01831 124-142, looked up, XPC, human, residues 124-142; also called unphosphorylated XPC peptide; source: synthetic peptide, bought: Sigma Genosys Japan) [unphosphorylated peptide of human XPC (residues 124–142)]",–
–,–,"AHHLKRGATMNEDSNEEEEE[pS]ENDWEEVEELSEPVLGDVRESTAFSRS (domain or fragment, UniProt Q01831 109-156, looked up, also: 13C/15N-labeled, acidic fragment of the nucleotide excision repair factor XPC, human, residues 109-156; 13C/15N-labelled; in the complex with p62-PH phosphorylation of Ser129 reached ~80% at ~2 h; also called Ser129-phosphorylated XPC-AF; source: E. coli Rosetta 2 (DE3) pLysS, purified (Ni-NTA, thrombin digestion, Superdex30); phosphorylated by CK2 in the NMR tube) [human XPC-AF (residues 109–156) phosphorylated at Ser129 by CK2]",binding result [2]: binds
–,binds,"DDLML[pS]PDDIEQWFTEDPGPDE (peptide, UniProt P04637 41-62, looked up, p53 TAD2, human, residues 41-62; also called Ser46-phosphorylated p53-TAD2; source: synthetic peptide, bought: Sigma Genosys Japan) [Ser46-phosphorylated peptide of human p53-TAD2 (residues 41–62)]",–
–,binds,"DDLML[pS]PDDIEQWF[pT]EDPGPDE (peptide, UniProt P04637 41-62, looked up, p53 TAD2, human, residues 41-62; also called Ser46, Thr55 double-phosphorylated p53-TAD2; source: synthetic peptide, bought: Sigma Genosys Japan) [Ser46, Thr55 double-phosphorylated peptide of human p53-TAD2 (residues 41–62)]",–
–,binds,"DDLMLSPDDIEQWF[pT]EDPGPDE (peptide, UniProt P04637 41-62, looked up, p53 TAD2, human, residues 41-62; also called Thr55-phosphorylated p53-TAD2; TP; source: synthetic peptide, bought: Sigma Genosys Japan) [Thr55-phosphorylated peptide of human p53-TAD2 (residues 41–62)]",–

# From article PMC4753521, “Real-time and simultaneous monitoring of the phosphorylation and enhanced interaction of p53 and XPC acidic domains with the TFIIH p62 subunit” (Oncogenesis, 2015)
